{
  "source": "paper PMC1698263",
  "molecular_target": "FMRP (fragile X mental retardation protein) (human, UniProt Q06787 1-632)",
  "assay": "EMSA; FMRP 0.35-1.4 ug; 0.50 pmol RNA; FMRP EMSA: 30 min on ice, 6% nondenaturing PAGE; buffer, salt and pH not given (cited ref 18). Strand annealing assays (FMRP, I304N, dKHT, FXR1P) read RNA:RNA a",
  "data": [
    {"binder": "UAGGUAGUUUCAUGUUGUUGG (ssRNA)", "note": "[hsa-miR-196a-1 mature miRNA]", "values": [
      {"measurement": "binding result", "result": "binds"}
    ]}
  ]
}
